Assay results taken from paper PMC6475063 (Journal of the American Heart Association: Cardiovascular …, 2019).
One block for each binder: values may come before it.

Columns and labels:
[1] = biological target: T1, YFP-tagged human AT1R (angiotensin II type 1 receptor) (human, UniProt P30556 1-359); test: FRET or BRET
T1 sequence (looked up): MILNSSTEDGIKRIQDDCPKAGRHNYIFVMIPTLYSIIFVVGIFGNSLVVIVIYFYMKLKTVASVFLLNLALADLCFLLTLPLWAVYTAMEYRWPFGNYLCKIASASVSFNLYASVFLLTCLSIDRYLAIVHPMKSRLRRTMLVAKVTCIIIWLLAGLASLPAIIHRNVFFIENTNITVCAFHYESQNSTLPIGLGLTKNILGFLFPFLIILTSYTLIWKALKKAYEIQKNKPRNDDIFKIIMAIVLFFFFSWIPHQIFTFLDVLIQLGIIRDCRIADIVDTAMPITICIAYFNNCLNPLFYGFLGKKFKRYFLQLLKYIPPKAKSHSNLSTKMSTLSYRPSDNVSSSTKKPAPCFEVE

[2] = biological target: T1, YFP-tagged human AT1R (angiotensin II …); test: FRET or BRET; remark: listed apart in the source

EC50 of Ang II for the relative change of BRET ratio [1]: 6.3 nM
relative change of BRET ratio, 2 min with Ang II [2]: 89.7 % (Ang II for 10 minutes set to 100%)
relative change of BRET ratio, 5 min with Ang II [2]: 102 % (Ang II for 10 minutes set to 100%)
relative change of BRET ratio, 10 min with Ang II [2]: 100 % (Ang II for 10 minutes set to 100%)
relative change of BRET ratio, 20 min with Ang II [2]: 112 % (Ang II for 10 minutes set to 100%)
relative change of BRET ratio, 30 min with Ang II [2]: 93.9 % (Ang II for 10 minutes set to 100%)
B1: RLuc-tagged bovine β-arrestin2 (natural protein, UniProt P32120 1-420, looked up)
chain: MGEKPGTRVFKKSSPNCKLTVYLGKRDFVDHLDKVDPVDGVVLVDPDYLKDRKVFVTLTCAFRYGREDLDVLGLSFRKDLFIANYQAFPPTPNPPRPPTRLQERLLRKLGQHAHPFFFTIPQNLPCSVTLQPGPEDTGKACGVDFEIRAFCAKSLEEKSHKRNSVRLVIRKVQFAPEKPGPQPSAETTRHFLMSDRSLHLEASLDKELYYHGEPLNVNVHVTNNSTKTVKKIKVSVRQYADICLFSTAQYKCPVAQVEQDDQVSPSSTFCKVYTITPLLSNNREKRGLALDGKLKHEDTNLASSTIVKEGANKEVLGILVSYRVKVKLVVSRGGDVSVELPFVLMHPKPHDHIALPRPQSAATHPPTLLPSAVPETDAPVDTNLIEFETNYATDDDIVFEDFARLRLKGLKDEDYDDQFC

EC50 of Ang II for the relative change of BRET ratio [1]: 6.7 nM
relative change of BRET ratio, 2 min with Ang II [2]: 89.1 % (Ang II for 10 minutes set to 100%)
relative change of BRET ratio, 5 min with Ang II [2]: 107 % (Ang II for 10 minutes set to 100%)
relative change of BRET ratio, 10 min with Ang II [2]: 100 % (Ang II for 10 minutes set to 100%)
relative change of BRET ratio, 20 min with Ang II [2]: 93.5 % (Ang II for 10 minutes set to 100%)
relative change of BRET ratio, 30 min with Ang II [2]: 95.8 % (Ang II for 10 minutes set to 100%)
B2: RLuc-tagged bovine β-arrestin1 (natural protein, UniProt P17870 1-418, looked up)
chain: MGDKGTRVFKKASPNGKLTVYLGKRDFVDHIDLVEPVDGVVLVDPEYLKERRVYVTLTCAFRYGREDLDVLGLTFRKDLFVANVQSFPPAPEDKKPLTRLQERLIKKLGEHAYPFTFEIPPNLPCSVTLQPGPEDTGKACGVDYEVKAFCAENLEEKIHKRNSVRLVIRKVQYAPERPGPQPTAETTRQFLMSDKPLHLEASLDKEIYYHGEPISVNVHVTNNTNKTVKKIKISVRQYADICLFNTAQYKCPVAMEEADDTVAPSSTFCKVYTLTPFLANNREKRGLALDGKLKHEDTNLASSTLLREGANREILGIIVSYKVKVKLVVSRGGLLGDLASSDVAVELPFTLMHPKPKEEPPHREVPEHETPVDTNLIELDTNDDDIVFEDFARQRLKGMKDDKEEEEDGTGSPRLNDR
